Experimental data published in paper PMC4157730 (Journal of molecular biology, 2012).

Assays:
[1] = biological target: the molecule itself; test: AUC
[2] = biological target: the molecule itself; test: negative staining transmission electron microscopy

B1: human apolipoprotein (apo) C-II (natural protein, UniProt P02655 23-101, looked up)
chain: TQQPQQDEMPSPTFLTQVKESLSSYWESAKTAAQNLYEKTYLPAVDEKLRDLYSKSTAAMSTYTGIFTDQVLSVLKGEE
B1 was tested, and the Ka [1] was 3.27e+11 M⁻¹ and the “stoichiometry N” value [2] was about 621 subunits.
